Values belong to the molecule of their own block, whether it stands above or below them.
Columns and labels:
[1] = biological target: αVβ6 headpiece (soluble, disulfide-linked: αv headpiece residues 1-594 with M400C and β6 headpiece residues 1-474 with I270C) (UniProt P06756); experiment: fluorescence anisotropy; pH 9.0
Target sequence in this assay (P06756 other isoform, or with tags, fused parts or gaps M400C I270C, chain 1 of 2): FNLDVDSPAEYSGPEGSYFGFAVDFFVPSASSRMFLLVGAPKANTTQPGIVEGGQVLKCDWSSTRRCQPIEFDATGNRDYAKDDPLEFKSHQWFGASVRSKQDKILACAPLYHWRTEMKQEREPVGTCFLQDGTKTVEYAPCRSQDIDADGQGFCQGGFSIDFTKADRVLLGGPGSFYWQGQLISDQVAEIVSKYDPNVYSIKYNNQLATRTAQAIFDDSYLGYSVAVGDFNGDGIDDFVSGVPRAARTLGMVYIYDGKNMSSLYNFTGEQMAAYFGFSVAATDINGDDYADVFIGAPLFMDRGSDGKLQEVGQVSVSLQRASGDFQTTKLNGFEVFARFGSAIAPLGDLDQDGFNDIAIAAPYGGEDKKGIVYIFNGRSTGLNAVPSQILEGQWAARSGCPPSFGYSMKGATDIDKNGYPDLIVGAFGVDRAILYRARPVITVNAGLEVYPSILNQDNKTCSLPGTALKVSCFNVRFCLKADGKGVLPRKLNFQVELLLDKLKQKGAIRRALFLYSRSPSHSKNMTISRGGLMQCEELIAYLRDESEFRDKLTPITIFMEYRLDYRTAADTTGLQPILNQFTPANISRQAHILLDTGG
Target sequence in this assay (P18564 other isoform, or with tags, fused parts or gaps M400C I270C, chain 2 of 2, further chain): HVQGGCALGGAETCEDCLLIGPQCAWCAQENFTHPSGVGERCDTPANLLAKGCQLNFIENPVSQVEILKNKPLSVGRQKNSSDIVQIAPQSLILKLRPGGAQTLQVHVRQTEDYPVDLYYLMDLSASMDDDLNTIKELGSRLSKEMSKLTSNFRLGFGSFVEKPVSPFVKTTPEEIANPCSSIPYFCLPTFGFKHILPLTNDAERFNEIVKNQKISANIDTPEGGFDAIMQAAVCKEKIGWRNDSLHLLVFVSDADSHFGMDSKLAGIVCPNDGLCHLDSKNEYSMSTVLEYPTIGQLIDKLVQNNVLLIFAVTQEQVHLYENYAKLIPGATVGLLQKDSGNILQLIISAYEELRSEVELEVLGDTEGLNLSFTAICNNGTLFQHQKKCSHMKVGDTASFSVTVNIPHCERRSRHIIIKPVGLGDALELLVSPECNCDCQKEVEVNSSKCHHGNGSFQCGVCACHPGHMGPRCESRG

[2] = biological target: αVβ6 headpiece (soluble, disulfide-linked: αv headpiece residues 1-594 with M400C and β6 headpiece residues 1-474 with I270C) (UniProt P06756); experiment: fluorescence anisotropy; pH 6.0
Target sequence in this assay (P06756 other isoform, or with tags, fused parts or gaps M400C I270C, chain 1 of 2): as the sequence (P06756 other isoform, or with tags, fused parts or gaps M400C I270C, chain 1 of 2) above
Target sequence in this assay (P18564 other isoform, or with tags, fused parts or gaps M400C I270C, chain 2 of 2, further chain): as the sequence (P18564 other isoform, or with tags, fused parts or gaps M400C I270C, chain 2 of 2, further chain) above

[3] = biological target: αVβ6 headpiece (soluble, disulfide-linked: αv headpiece residues 1-594 with M400C and β6 headpiece residues 1-474 with I270C) (UniProt P06756); experiment: fluorescence anisotropy; pH 8.0
Target sequence in this assay (P06756 other isoform, or with tags, fused parts or gaps M400C I270C, chain 1 of 2): as the sequence (P06756 other isoform, or with tags, fused parts or gaps M400C I270C, chain 1 of 2) above
Target sequence in this assay (P18564 other isoform, or with tags, fused parts or gaps M400C I270C, chain 2 of 2, further chain): as the sequence (P18564 other isoform, or with tags, fused parts or gaps M400C I270C, chain 2 of 2, further chain) above

[4] = biological target: αVβ6 headpiece (soluble, disulfide-linked: αv headpiece residues 1-594 with M400C and β6 headpiece residues 1-474 with I270C) (UniProt P06756); experiment: fluorescence anisotropy; pH 5.0
Target sequence in this assay (P06756 other isoform, or with tags, fused parts or gaps M400C I270C, chain 1 of 2): as the sequence (P06756 other isoform, or with tags, fused parts or gaps M400C I270C, chain 1 of 2) above
Target sequence in this assay (P18564 other isoform, or with tags, fused parts or gaps M400C I270C, chain 2 of 2, further chain): as the sequence (P18564 other isoform, or with tags, fused parts or gaps M400C I270C, chain 2 of 2, further chain) above

[5] = biological target: αVβ6 headpiece (soluble, disulfide-linked: αv headpiece residues 1-594 with M400C and β6 headpiece residues 1-474 with I270C) (UniProt P06756); experiment: fluorescence anisotropy; pH 7.0
Target sequence in this assay (P06756 other isoform, or with tags, fused parts or gaps M400C I270C, chain 1 of 2): as the sequence (P06756 other isoform, or with tags, fused parts or gaps M400C I270C, chain 1 of 2) above
Target sequence in this assay (P18564 other isoform, or with tags, fused parts or gaps M400C I270C, chain 2 of 2, further chain): as the sequence (P18564 other isoform, or with tags, fused parts or gaps M400C I270C, chain 2 of 2, further chain) above

[6] = biological target: αVβ3 headpiece (soluble, disulfide-linked: αv headpiece residues 1-594 with M400C and β3 headpiece residues 1-472 with Q267C) (UniProt P06756); experiment: fluorescence anisotropy competition
Target sequence in this assay (P06756 other isoform, or with tags, fused parts or gaps M400C Q267C, chain 1 of 2): as the sequence (P06756 other isoform, or with tags, fused parts or gaps M400C I270C, chain 1 of 2) above
Target sequence in this assay (P05106 27-498 Q293C, chain 2 of 2, further chain): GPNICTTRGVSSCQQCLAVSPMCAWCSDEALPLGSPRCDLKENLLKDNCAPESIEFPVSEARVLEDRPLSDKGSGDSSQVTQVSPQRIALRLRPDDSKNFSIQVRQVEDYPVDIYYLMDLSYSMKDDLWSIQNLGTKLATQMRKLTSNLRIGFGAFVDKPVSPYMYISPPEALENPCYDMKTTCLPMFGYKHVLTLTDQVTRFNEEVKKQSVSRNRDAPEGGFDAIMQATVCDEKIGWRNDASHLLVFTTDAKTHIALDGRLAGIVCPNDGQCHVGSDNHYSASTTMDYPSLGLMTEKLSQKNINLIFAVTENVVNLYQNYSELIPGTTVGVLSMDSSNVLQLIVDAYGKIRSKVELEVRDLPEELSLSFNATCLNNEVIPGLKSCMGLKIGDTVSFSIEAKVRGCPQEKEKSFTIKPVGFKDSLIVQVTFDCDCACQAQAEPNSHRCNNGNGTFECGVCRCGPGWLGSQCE

[7] = biological target: αVβ3 headpiece (soluble, disulfide-linked: αv headpiece residues 1-594 with M400C and β3 headpiece residues 1-472 with Q267C) (UniProt P06756); experiment: fluorescence anisotropy, competition with FITC-GRGDLGRL on αVβ3 headpiece
Target sequence in this assay (P06756 other isoform, or with tags, fused parts or gaps M400C Q267C M400C Q267C, chain 1 of 2): as the sequence (P06756 other isoform, or with tags, fused parts or gaps M400C I270C, chain 1 of 2) above
Target sequence in this assay (chain, as listed by the source M400C Q267C M400C Q267C, chain 2 of 2): as the sequence (P05106 27-498 Q293C, chain 2 of 2, further chain) above

[8] = biological target: αVβ6 headpiece (soluble, disulfide-linked: αv headpiece residues 1-594 with M400C and β6 headpiece residues 1-474 with I270C) (UniProt P06756); experiment: fluorescence anisotropy, competition with FITC-GRGDLGRL on αVβ6 headpiece
Target sequence in this assay (P06756 other isoform, or with tags, fused parts or gaps M400C I270C M400C I270C, chain 1 of 2): as the sequence (P06756 other isoform, or with tags, fused parts or gaps M400C I270C, chain 1 of 2) above
Target sequence in this assay (chain, as listed by the source M400C I270C M400C I270C, chain 2 of 2): as the sequence (P18564 other isoform, or with tags, fused parts or gaps M400C I270C, chain 2 of 2, further chain) above

[9] = biological target: αVβ6 headpiece (soluble, disulfide-linked: αv headpiece residues 1-594 with M400C and β6 headpiece residues 1-474 with I270C) (UniProt P06756); experiment: competitive fluorescence anisotropy on αVβ6 headpiece
Target sequence in this assay (P06756 other isoform, or with tags, fused parts or gaps M400C I270C M400C I270C, chain 1 of 2): as the sequence (P06756 other isoform, or with tags, fused parts or gaps M400C I270C, chain 1 of 2) above
Target sequence in this assay (chain, as listed by the source M400C I270C M400C I270C, chain 2 of 2): as the sequence (P18564 other isoform, or with tags, fused parts or gaps M400C I270C, chain 2 of 2, further chain) above

Molecule: FITC-GRGDLGRL (SEQ ID NO: 68), FITC-pro-TGF-β3 peptide
Kd [1]: 27.4 nM | Kd [2]: 2000 nM | Kd [3]: 84.6 nM | Kd [4]: 3810 nM | Kd [5]: 212 nM

Molecule: GRGDSP (SEQ ID NO: 72) peptide of fibronectin
Kd [6]: 1600 nM

Molecule: HGRGD [TGF-β3 undecapeptide truncated from the C-terminus until Leu-244 is removed]
step-wise drop in affinity (fold, against the peptide one residue longer) [9]: 10 fold

The next lines start with the values.

fold lower affinity than for αVβ6 [7]: 1000 fold | Kd [8]: 8.5 nM
Molecule: GRGDLGRLK [nonapeptide containing RGD from pro-TGF-β3, … (SEQ ID NO: 75)]

step-wise drop in affinity (fold, against the peptide one residue longer) [9]: 10 fold
Molecule: HGRGDLGR [TGF-β3 undecapeptide truncated from the C-terminus until Leu-247 is removed]

Reference: US20250206802A1
